Measured values as given in paper PMC6771244, “VSTM2A suppresses colorectal cancer and antagonizes Wnt signaling receptor LRP6” (Theranostics, 2019).

T1: recombinant human LRP-6 Fc Chimera Protein (R&D, 1505-LR-025) (human, UniProt O75581 20-1370)
T1 construct: human LRP6 part of a commercial Fc chimera; also called LRP6 (1505-LR-025); source: bought: R&D
T1 sequence (looked up): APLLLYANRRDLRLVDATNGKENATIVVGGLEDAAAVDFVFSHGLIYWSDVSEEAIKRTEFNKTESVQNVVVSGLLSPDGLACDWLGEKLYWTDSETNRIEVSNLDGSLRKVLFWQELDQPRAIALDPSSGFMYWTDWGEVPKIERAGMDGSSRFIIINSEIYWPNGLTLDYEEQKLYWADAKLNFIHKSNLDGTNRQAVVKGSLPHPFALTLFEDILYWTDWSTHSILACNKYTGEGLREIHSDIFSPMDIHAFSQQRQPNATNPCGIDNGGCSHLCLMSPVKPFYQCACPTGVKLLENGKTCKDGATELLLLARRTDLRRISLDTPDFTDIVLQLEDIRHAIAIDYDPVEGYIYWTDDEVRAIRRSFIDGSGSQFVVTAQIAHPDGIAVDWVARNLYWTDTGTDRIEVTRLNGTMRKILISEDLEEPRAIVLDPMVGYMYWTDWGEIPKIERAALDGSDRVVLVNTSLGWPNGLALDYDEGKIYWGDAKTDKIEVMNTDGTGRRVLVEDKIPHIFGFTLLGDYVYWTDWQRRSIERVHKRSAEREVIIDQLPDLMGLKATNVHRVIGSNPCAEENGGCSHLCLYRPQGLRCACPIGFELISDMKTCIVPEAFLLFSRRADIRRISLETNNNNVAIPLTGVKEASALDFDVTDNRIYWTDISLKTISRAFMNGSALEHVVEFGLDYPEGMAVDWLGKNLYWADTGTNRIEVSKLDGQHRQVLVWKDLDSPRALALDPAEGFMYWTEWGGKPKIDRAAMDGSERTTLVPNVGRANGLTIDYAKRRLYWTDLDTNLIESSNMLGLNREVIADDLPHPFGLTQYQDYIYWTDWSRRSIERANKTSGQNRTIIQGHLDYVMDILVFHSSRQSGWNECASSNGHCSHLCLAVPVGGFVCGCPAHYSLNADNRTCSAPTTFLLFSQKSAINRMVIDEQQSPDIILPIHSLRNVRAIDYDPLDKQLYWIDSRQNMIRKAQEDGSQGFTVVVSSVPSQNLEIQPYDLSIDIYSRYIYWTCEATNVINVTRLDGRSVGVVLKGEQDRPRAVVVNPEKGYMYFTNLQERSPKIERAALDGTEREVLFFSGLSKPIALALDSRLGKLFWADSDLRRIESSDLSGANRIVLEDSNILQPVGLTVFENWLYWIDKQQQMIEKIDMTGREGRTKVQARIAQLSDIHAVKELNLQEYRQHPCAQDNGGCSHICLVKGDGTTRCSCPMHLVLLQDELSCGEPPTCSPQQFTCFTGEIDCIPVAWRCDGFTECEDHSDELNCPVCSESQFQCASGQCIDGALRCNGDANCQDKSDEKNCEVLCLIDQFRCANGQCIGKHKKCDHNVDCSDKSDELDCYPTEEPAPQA


How the values were obtained:
DKK1 (Homo sapiens) = DKK1 (Homo sapiens) (UniProt O94907); experiment: SPR; details: cited from earlier work
DKK1 (Homo sapiens), sequence (O94907 32-266): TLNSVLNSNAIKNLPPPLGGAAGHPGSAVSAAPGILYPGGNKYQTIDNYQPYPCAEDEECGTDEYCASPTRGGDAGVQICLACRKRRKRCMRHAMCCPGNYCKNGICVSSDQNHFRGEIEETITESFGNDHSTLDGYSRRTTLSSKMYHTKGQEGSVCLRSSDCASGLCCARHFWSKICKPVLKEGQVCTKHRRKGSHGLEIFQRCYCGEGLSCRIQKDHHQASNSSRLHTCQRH

[1] = molecular target: T1, recombinant human LRP-6 Fc Chimera …; experiment: ELISA; titration ELISA; 5 ug/ml LRP-6 Fc immobilised on the plate at 4 °C for 12 h, blocked with 5% BSA in PBS; VSTM2A His-tag serial dilution (start 100 ug/ml, factor 4) for 2 h at room temperature, in duplicate; interaction fixed by DTSSP; pNPP read at OD405; details: both partners purified

| Molecule | Kd (DKK1 (Homo sapiens)) [nM] | Kd [1] [nM] |
| --- | --- | --- |
| LRP6 (from UniProt O75581) | 0.6 | – |
| Recombinant Human VSTM2A His-tag Protein (R&D, 10037-VT) (ligand, UniProt Q8TAG5 25-236, looked up, human VSTM2A, commercial recombinant protein; also called recombinant VSTM2A; VSTM2A pure protein; source: bought: R&D) SQAKFTEFPRNVTATEGQNVEMSCAFQSGSASVYLEIQWWFLRGPEDLDPGAEGAGAQVELLPDRDPDSDGTKISTVKVQGNDISHKLQISKVRKKDEGLYECRVTDANYGELQEHKAQAYLKVNANSHARRMQAFEASPMWLQDMKPRKNVSAAIPSSIHGSANQRTHSTSSPQVVAKIPKQSPQSGARIATSHGLSVLLLVCGFVKGALL | – | 9.19 |
